± gives the standard deviation of the averaged measurements.
System: Saccharomyces cerevisiae
Assay: protein stability index of tFT-peptide fusion (C-terminal peptide) (PSI (0-1 scale)); higher = more stable (slower turnover)
Conditions: genetic background: wild type; temperature: 30 C
Protocol: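 Multiplexed protein stability (MPS) profiling in S. cerevisiae. Random 12-aa peptides (tFT-X12 library) are fused to the C-terminus of a sfGFP-mCherry tandem fluorescent timer, after mCherry and a GGGS linker. Cells are FACS-sorted into 8 mCherry/sfGFP bins and deep-sequenced. The protein stability index (PSI) is the read-weighted bin average, scaled from 0 (unstable) to 1 (stable). Only peptides with >10 reads are reported; cells were grown at 30 °C in SC-His with glucose.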
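Also: PSI is a weighted mean of sequencing reads over stability bins, variants kept only with over 10 reads, mCherry proximal and sfGFP distal, peptide attached via GGGS linker.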

Sequence	protein stability index
PWFIGGSLGESG	0.699 ± 0.027
PPPAPPLTFGHV	0.6852 ± 0.0031
PVAQSCHAPSPP	0.62303 ± 0.00018
SPGRPSSPPRPR	0.744 ± 0.029
VPRGPRFHIILS	0.594 ± 0.035
VCGREVKCGEGY	0.691 ± 0.027
VGWGGGESLGWV	0.694 ± 0.13
PGLGISHARCCF	0.695 ± 0.016
FSLFSSPPSLFC	0.672 ± 0.03
PTRQTIWPPPAS	0.748 ± 0.026
PRYRTPPLPPPG	0.55 ± 0.012
NEINKPTRSQTA	0.644 ± 0.04
RPLSDDTDCPCI	0.748 ± 0.13
RALVIKREALQI	0.59 ± 0.03
GSWGWHVRGSGV	0.598 ± 0.037
RCRNVGAVATPR	0.643 ± 0.1
ANQGRRPWRGMC	0.585 ± 0.14
YFGGRGPRGRER	0.714 ± 0.0095
KNQLKKPINKSK	0.734 ± 0.13
FTFARPVCLFFG	0.587 ± 0.003
FSSCFLVSPSLF	0.648 ± 0.016
SPPPPRLPSHPS	0.613 ± 0.14
RDGYMVKVYGVK	0.707 ± 0.1
DLRPSLPHPTQP	0.673 ± 0.037
ARAPPSSYPPSG	0.66 ± 0.012

Sequence	protein stability index
GWLRGVCFCSWG	0.73 ± 0.037
RASGSFPSLVFS	0.734 ± 0.12
EARPQAMPGRHP	0.689 ± 0.024
PPQPTTPFPSPQ	0.6788 ± 0.0063
IKFVRLEGLCPL	0.624 ± 0.019
SGAGVGWGCSSV	0.635 ± 0.047
PPPPPSSPPALL	0.663 ± 0.058
PPPSSPTSGHSP	0.771 ± 0.19
SPPPGLSVILLH	0.6 ± 0.054
SVVSWRGRNRSV	0.864 ± 0.065
PVHHLSLPSPLL	0.732 ± 0.037
SLAPPVPPPPLH	0.67 ± 0.026
RMCLDYSFDSLL	0.673 ± 0.0082
SGDGGVGHWVGG	0.676 ± 0.025
LSSGPARVMVVL	0.608 ± 0.04
VSPFSILLPVPL	0.608 ± 0.017
YYGCGAFGFSVR	0.695 ± 0.014
RLPLASPPHSSP	0.675 ± 0.056
LLLLRPPLGASF	0.711 ± 0.016
APPPPSPPSLAS	0.736 ± 0.074
YVQFISFAGTRP	0.724 ± 0.025
SSSPLPPPRLPP	0.7039 ± 0.0016
TPFLLHPPSPDL	0.607 ± 0.051
NTRGRGQCCQGN	0.576 ± 0.053
VSSPLLFCSIFL	0.675 ± 0.026

Sequence	protein stability index
RRPSSCSPLPLY	0.695 ± 0.03
LTPLPPPPLRPP	0.599 ± 0.024
RLSRCFDSHLGG	0.696 ± 0.038
APSTFRPPTPPS	0.711 ± 0.03
FHVVPLTSPPPV	0.755 ± 0.03
KKKKKKKKRARY	0.657 ± 0.0063
LCLFSVRPARLL	0.753 ± 0.13
GLVVCGGQVVEG	0.704 ± 0.042
TLSSVSEKVVHL	0.675 ± 0.019
RFLAHLVRPFCG	0.722 ± 0.039
TLFSNILRSPHS	0.696 ± 0.035
TGRAPGSDVLAS	0.7139 ± 0.0029
LLSLVSDFLFGL	0.698 ± 0.042
EPPELSISALGF	0.6865 ± 0.0021
SFGIGFFATRGF	0.676 ± 0.031
SVRWFLIGCGGA	0.579 ± 0.048
CWCGLGVWAFGV	0.715 ± 0.039
VRWSRMGCNWGG	0.585 ± 0.093
IWGLDGKSISID	0.751 ± 0.061
GVIFRRFDVGLS	0.682 ± 0.053
PVPPQHPPLKSI	0.705 ± 0.059
SVWGIVWRGNIV	0.704 ± 0.024
VGVTLSSFSRLP	0.693 ± 0.085
TGREGARVGIGR	0.687 ± 0.01
PPPPLPSFPSSS	0.858 ± 0.062

Sequence	protein stability index
GLCVTEFCGFFL	0.705 ± 0.019
CGWASSWHSGLH	0.6874 ± 0.00071
AFQLGMILSLVA	0.507 ± 0.013
FLVWGLGWLCCV	0.594 ± 0.025
FFLPSLFSVLSF	0.53 ± 0.04
PGLPFAPLPPPL	0.733 ± 0.014
FRGGRTEWEKNV	0.719 ± 0.058
HSHKHTREDTVL	0.657 ± 0.036
PGSCGATTRCLH	0.481 ± 0.075
HLSCVSVSVRGS	0.629 ± 0.015
WRKMSNDIRGRW	0.799 ± 0.11
AVNEHVPILFLL	0.62 ± 0.073
TGRNIGRVKIYL	0.665 ± 0.049
APPAPPTYLAPF	0.729 ± 0.069
RRSRTEVVAVGG	0.676 ± 0.017
VGIFQLCCALGG	0.47 ± 0.085
KEKRFTQKLIRA	0.654 ± 0.095
EAQGVEMMGWAV	0.696 ± 0.025
LSSLLFSPLPPS	0.7593 ± 0.0019
LKRKRKYKKQGV	0.786 ± 0.01
GVVRSAPEAASL	0.573 ± 0.03
PQSSGVSPIPPP	0.77 ± 0.078
FPPLLFSSPPLP	0.683 ± 0.018
KITEKLGSPKTF	0.654 ± 0.086
GVYVGWFMRSGG	0.678 ± 0.015

Sequence	protein stability index
GLVWGGCGTVGG	0.768 ± 0.17
SCLYPTQILART	0.631 ± 0.017
NLKCRMSLKTLG	0.705 ± 0.0018
PPPPPPPPPCSP	0.7052 ± 0.0024
HSCPVCVGWNYS	0.654 ± 0.047
SPPRPPPSPTPL	0.771 ± 0.033
ENHPATICGFYR	0.767 ± 0.087
SLLELSPPRSPP	0.681 ± 0.03
HVGEVERGGMGG	0.7157 ± 0.0021
FSTVIDFLAYLF	0.636 ± 0.036
PPTPGPPPLRYP	0.705 ± 0.068
ARGPCRGSGSFG	0.631 ± 0.044
GVGGCRVRGLGA	0.691 ± 0.017
KKKGDAKNKKKQ	0.714 ± 0.067
PRPPPSFPPDPS	0.669 ± 0.049
WGSGGGRDGCGV	0.655 ± 0.083
PLAPPHRPALLM	0.568 ± 0.034
ERWRVYERYARG	0.692 ± 0.058
PSPPPPPSPSPP	0.626 ± 0.014
GGSDQLGDSVAG	0.647 ± 0.057
GRPRSSAVARSA	0.769 ± 0.036
TRDLWWNVRVRA	0.543 ± 0.015
PPRNPAALPTPI	0.718 ± 0.11
SVWCRRRRVTNS	0.5825 ± 0.0054
FTPLPHAHPPPP	0.664 ± 0.0034

Sequence	protein stability index
NKQNKKKKTNKK	0.6792 ± 0.0036
FFPPFLFSLFRT	0.5621 ± 0.0007
WGGRNWDGRGCG	0.612 ± 0.068
KCPSLVHSNSTG	0.71 ± 0.016
SFFSVQIQFGLS	0.617 ± 0.012
GFEVAFSCSSWW	0.716 ± 0.038
PSPPTYPSFPSR	0.724 ± 0.041
LSYRYPLYPILL	0.647 ± 0.018
LQTLPAPHTPFP	0.643 ± 0.039
EGAGGVVVEGLG	0.68 ± 0.028
PPSPPPPALSSS	0.665 ± 0.056
FPPPRYPRRPTA	0.682 ± 0.018
GGSETHLTVTIY	0.636 ± 0.0077
PPPRPRPPPRPP	0.581 ± 0.021
TPAPFSSHLVRR	0.723 ± 0.083
VPPPLASPPVTP	0.698 ± 0.055
ASIPAPRLTPRA	0.681 ± 0.048
SNGYMFRRDRYV	0.686 ± 0.028
PRLSLPSAPPRP	0.732 ± 0.08
DVLSLFCKFFGV	0.661 ± 0.075
PPPHRPPPRPPR	0.697 ± 0.0094
